# Measured values taken from publication PMC11782487, “Cryo-EM structures reveal the H^+/citrate symport mechanism of Drosophila INDY” (Life Science Alliance, 2025).
# B1: Drosophila I'm Not Dead Yet (INDY) (natural protein)
# chain: not shown
# notes: I'm Not Dead Yet (INDY), Drosophila melanogaster, full-length gene, GenBank AF509505.1; 590 amino acids; Eluted from the anti-GFP resin by overnight thrombin cleavage; residues of the thrombin site may be left at the C-terminus; Regions of poor density were modelled as polyalanine in the deposited structures; also called WT INDY; apo INDY; not shown: eGFP, C-terminal, cleaved; His10, C-terminal, …
# Molecular target: the molecule itself
# Assay: cryo-EM structure; purified INDY in MSP1 nanodiscs (E. coli polar lipids); apo at pH 6 and pH 8, with 5 mM citrate, or with 150 uM DIDS; homodimer in all seven structures
protein,measurement,value
B1,stoichiometry N,2
